Data on 5 molecules can be found in patent US20240318218A1 (The Trustees of Columbia University in The City of New York, priority 2023, published 2024).

Data set [1] has as its target T1, human NADK (ATP-NAD+ kinase), recombinant, C-terminal 6x-histidine tag (Homo sapiens, UniProt O95544).
T1 construct: 6x-histidine (C); made in house; host or cells: E. coli BL21(DE3)
T1 sequence (O95544 1-446): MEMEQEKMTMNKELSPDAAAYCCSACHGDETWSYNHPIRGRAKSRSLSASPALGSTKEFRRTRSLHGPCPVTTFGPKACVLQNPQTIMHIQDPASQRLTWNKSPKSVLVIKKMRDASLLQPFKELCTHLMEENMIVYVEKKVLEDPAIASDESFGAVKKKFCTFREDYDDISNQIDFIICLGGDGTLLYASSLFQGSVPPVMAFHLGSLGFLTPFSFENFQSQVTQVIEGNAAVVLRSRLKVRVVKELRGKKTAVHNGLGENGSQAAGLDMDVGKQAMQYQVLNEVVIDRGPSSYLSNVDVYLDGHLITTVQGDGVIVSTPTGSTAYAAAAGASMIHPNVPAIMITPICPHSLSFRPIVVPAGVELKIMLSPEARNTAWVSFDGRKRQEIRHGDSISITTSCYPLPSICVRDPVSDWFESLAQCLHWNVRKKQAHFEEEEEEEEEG
Put plainly: Affinity of human NADK for NAD+ compared with pigeon, duck and cat NADK. The note with it: human NADK relative to pigeon. The data set is classed as biochemical. The method, then: (§1) Recombinantly-expressed NADKs were explored for their reversible activities. It was hypothesized that the reversibility of the pigeon enzyme would enable compensation for the high picolinic acid […] (PC) activity present in pigeon livers, which inhibits NAD^+ biosynthesis from dietary tryptophan. […] It was determined that human NADK has an affinity for NAD^+ that is about 600 times higher than the pigeon, duck and cat isoforms. Without wishing to be bound by theory, NAD^+ serves as a product inhibitor for the reverse human NADK activity, which accounts for the observed irreversible behavior. While each of the NADKs explored were “reversible,” the reverse activity of the human enzyme is impeded via product inhibition. […]
(§2) Referring now to FIGS. 3A-3B, initial rate kinetic experiments were performed with pigeon, duck, cat, and human NADK enzymes in both the forward and reverse directions. […] In FIG. 3B, the production of ATP was detected in a coupled reaction with firefly luciferase where ATP was converted to light, the relative luminescence (RLU) was monitored, and a standard curve was used to calculate the ATP concentration.

Substrate in data set [2]: Nc1ncnc2c1ncn2[C@@H]1O[C@H](COP(=O)(O)OP(=O)(O)OP(=O)(O)O)[C@@H](O)[C@H]1O
Put plainly: purified protein, by the assay type. The note with it: other: cosubstrate NADH, 26° C., pH 7.8, 10 mM MgCl2, random bi-bi sequential.

Substrate in data set [3]: NC(=O)C1=CN([C@@H]2O[C@H](COP(=O)(O)OP(=O)(O)OC[C@H]3O[C@@H](n4cnc5c(N)ncnc54)[C@H](O)[C@@H]3O)[C@@H](O)[C@H]2O)C=CC1
As to the kind of experiment: purified protein, by the assay type. The note with it: 26° C., pH 7.8, 10 mM MgCl2, random bi-bi sequential, pH 7.8, 26.0 °C.

Substrate in data set [4]: O=CO
Put plainly: Kinetics of formate dehydrogenase (FDH). The data set is classed as biochemical, C. boidinii. The note with it: other: abbreviated sequential mechanism; pH 7.4; 37.0 °C. An excerpt: (§3) The enzymes involved in the cascade were characterized. Kinetic parameters for the NADH-dependent dehydrogenases, PPNKs, NADPH oxidases, and NADKs included in the exemplary embodiments of the present disclosure are shown in Table I below.
(§4) The FDH from C. boidinii was expressed recombinantly in a pEt28a plasmid and purified according to the materials and methods.
(§5) For overexpression, the enzymes were transformed into BL21(DE3) E. coli cells (New England Biolabs). Overnight cultures of BL21(DE3) E. coli cells harboring the DNA in pET20b plasmids and pET28a plasmid for FDH and sfGFP, respectively, were transferred into 50 mL of LB medium with 100 μg/mL ampicillin at 37° C. Overexpression of the enzymes was induced by adding isopropyl-β-thiogalactopyranoside (IPTG) to a final concentration of 1 mM at an optical density (OD) of 0.6 at 600 nm. After 3 h of induction, the cells were harvested and sonicated in wash buffer A for TPNOX (10 mM imidazole, 300 mM NaCl, and 20 mM Tris-HCl pH 7.4) and wash buffer B for all other enzymes (40 mM imidazole, 300 mM NaCl, and 20 mM Tris-HCl pH 7.4). The cells were centrifuged at 7000 rpm for 1 h and 4° C. The protein was purified using a nickel-nitrilotriacetic acid (Ni-NTA) column with continuous elution up to 500 mM imidazole.

Substrate in data set [5]: NC(=O)c1ccc[n+]([C@@H]2O[C@H](COP(=O)([O-])OP(=O)(O)OC[C@H]3O[C@@H](n4cnc5c(N)ncnc54)[C@H](O)[C@@H]3O)[C@@H](O)[C@H]2O)c1
Put plainly: Kinetics of formate dehydrogenase (FDH). The data set is classed as biochemical, C. boidinii. The note with it: other: abbreviated sequential mechanism; pH 7.4; 37.0 °C.
Description: as §3, §4, §5

Data set [6] has as its system NADK. As to the kind of experiment: Initial rate kinetic experiments with pigeon, duck, cat and human NADK enzymes, forward and reverse directions. The note with it: reverse direction (NADP^+ + ADP to NAD^+ + ATP); recombinant enzyme. The data set is classed as biochemical. As for the experimental part:
as §1, §2

Substrate in data set [7]: NC(=O)c1ccc[n+]([C@@H]2O[C@H](COP(=O)([O-])OP(=O)(O)OC[C@H]3O[C@@H](n4cnc5c(N)ncnc54)[C@H](OP(=O)(O)O)[C@@H]3O)[C@@H](O)[C@H]2O)c1
As to the kind of experiment: purified protein, by the assay type. The note with it: other: reverse direction; random bi-bi sequential mechanism.

Substrate in data set [8]: Nc1ncnc2c1ncn2[C@@H]1O[C@H](COP(=O)(O)OP(=O)(O)O)[C@@H](O)[C@H]1O
Put plainly: purified protein, by the assay type. The data set is classed as biochemical, pigeon. The note with it: other: reverse direction; random bi-bi sequential mechanism. An excerpt:
The ATP-producing NADK has been predominantly studied in the forward direction (consuming ATP) since the observed isoforms, such as the human NADK, are irreversible. Without wishing to be bound by theory, one form, pigeon NADK, follows a random bi-bi sequential mechanism and the kinetic parameters for the reverse direction are found in Table I.
Synthetic pigeon, duck, and cat NADK genes and a cloned human NADK gene all with C-terminal 6×-histidine tags were expressed E. coli and purified to apparent homogencity. The pigeon enzyme shares 85% sequence homology with the human enzyme, while the duck and pigeon enzymes are 96% sequence homology. The cat enzyme shares a 91% sequence homology to the human enzyme.
Referring now to FIGS. 3A-3B, initial rate kinetic experiments were performed with pigeon, duck, cat, and human NADK enzymes in both the forward and reverse directions. […] In FIG. 3B, the production of ATP was detected in a coupled reaction with firefly luciferase where ATP was converted to light, the relative luminescence (RLU) was monitored, and a standard curve was used to calculate the ATP concentration. […]
ATP production was measured using firefly luciferase. […] The luminescence was measured in a plate reader in 26° C. in a solution containing 10 mM Tris-HCl, pH 7.8, and 10 mM MgCl2. The ATP produced was calculated from luminescence using a calibration plot. […]

Turning to `NC(=O)c1ccc[n+]([C@@H]2O[C@H](COP(=O)([O-])OP(=O)(O)OC[C@H]3O[C@@H](n4cnc5c(N)ncnc54)[C@H](O)[C@@H]3O)[C@@H](O)[C@H]2O)c1` [NAD], the “affinity for NAD^+, times higher than the pigeon, duck and cat isoforms” value in data set [1] is recorded as “about 600 times”.

B1: B. subtilis polyphosphate NAD+ kinase (PPNK), recombinant, 6x-histidine tag (Bacillus subtilis subsp. subtilis str. 168) (protein)
chain: MKFAVSSKGDQVSDTLKSKIQAYLLDFDMELDENEPEIVISVGGDGTLLYAFHRYSDRLDKTAFVGVHTGHLGFYADWVPHEIEKLVLAIAKTPYHTVEYPLLEVIVTYHENEREERYLALNECTIKSIEGSLVADVEIKGQLFETFRGDGLCLSTPSGSTAYNKALGGAIIHPSIRAIQLAEMASINNRVFRTVGSPLLLPSHHDCMIKPRNEVDFQVTIDHLTLLHKDVKSIRCQVASEKVRFARFRPFPFWKRVQDSFIGKGE
For B1, the Km in data set [2] came to 1.40 ± 1.11 mM; in data set [3] (other: cosubstrate ATP), 1.7 ± 1.4 mM; in data set [3] (other: cosubstrate poly(P) (sodium metaphosphate)), 1.2 ± 0.6 mM.

B2: C. boidinii formate dehydrogenase (FDH), recombinant ([Candida] boidinii) (protein)
chain: MKIVLVLYDAGKHAADEEKLYGCTENKLGIANWLKDQGHELITTSDKEGETSELDKHIPDADIIITTPFHPAYITKERLDKAKNLKLVVVAGVGSDHIDLDYINQTGKKISVLEVTGSNVVSVAEHVVMTMLVLVRNFVPAHEQIINHDWEVAAIAKDAYDIEGKTIATIGAGRIGYRVLERLLPFNPKELLYYDYQALPKEAEEKVGARRVENIEELVAQADIVTVNAPLHAGTKGLINKELLSKFKKGAWLVNTARGAICVAEDVAAALESGQLRGYGGDVWFPQPAPKDHPWRDMRNKYGAGNAMTPHYSGTTLDAQTRYAEGTKNILESFFTGKFDYRPQDIILLNGEYVTKAYGKHDKK
notes: made in house; host or cells: E. coli BL21(DE3)
Turning to B2, the Km in data set [4] is on record as 4.0 ± 0.06 mM. For the same molecule, in data set [5], the Michaelis-Menten constant (Km) is given as 0.030 ± 0.002 mM and the catalytic constant (kcat) entry is listed as “(3.4 ± 0.1) × 10^2 min^−1”.

B3: human NADK: cloned human ATP-NAD^+ kinase with C-terminal 6×-histidine tag (protein, UniProt O95544 1-446, looked up)
NAD kinase: T1 sequence (O95544 1-446)
B3: the “reverse NADK activity” value in data set [6] was “no measurable activity in the reverse direction”.

B4: pigeon NADK (ATP-NAD+ kinase), recombinant, C-terminal 6x-histidine tag (Columba livia) (protein)
chain: MEMNRDKLCPGKADVSSDSAYHCSTCHDDEEWSNTSRGRAKSRSLSASPALGSTKEFRRTRSLHGPCPVTTFGPKACMLQNPKTIMHIQDPASQRLTWNKPPKSVLVIKKIRDASLLQPFKELCVYLTEENNMIVYVEKKVLEDPAIANDDNFGPVKKKFCTFREDYDDISNQIDFIICLGGDGTLLYASSLFQGSVPPVMAFHLGSLGFLTPFNFENFQSQVTQVIEGNAALVLRSRLKVKVVKEHREKTTVQNGIEENGVVSANIEKEVGKQIMQYQVLNEVVVDRGPSSYLSNVDVFLNGHLITTVQGDGVIVSTPTGSTAYAAAAGASMIHPNVPAIMITPICPHSLSFRPIVVPAGVELKIMLSPDARNTAWVSFDGRKRQEICHGDSISITTSCYPLPSICFRDPVSDWFESLAECLHWNVRKKQNNFAVEEEEF
For B4, the Michaelis constant (Km) in data set [7] came to 0.73 ± 0.16 mM; in data set [8], 27 ± 10 mM. Also, the catalytic constant (kcat) in data set [7] worked out at 8.7 ± 3.6 min⁻¹.
